# Measurements published in the nanobody polyreactivity screen of Harvey et al. (2022).
# Assay: yeast display, Sf9 membrane polyspecificity reagent, FACS + sequencing; frameworks hold sequencing errors
# Procedure, shortened: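 In a synthetic yeast display library (Saccharomyces cerevisiae BJ5465), nanobody expression was induced with galactose for 36–48 hours. FACS gates were set low and high (top ~1%) using anti-HA fluorescence for expression and streptavidin fluorescence for binding of the Sf9 membrane reagent. Each polyreactivity label is drawn from the gate of origin.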
row,Sequence,polyreactivity (PSR sort gate)
1,QVQLVESGGGLVQAGGSLRLSCAPSGRTFRYYAMGWYRQAPGKERELVAAINWSGGSTYYADSVKGRFSISRDNAKNAVYLQKNSLKPEDTAVYYCAADEKMYITGYDYWGQGTQVTVSS,low polyreactivity
2,QVQLVESGGGLVQAGGSLRLSCAPSGRTFVYYAMGWYRQAPGKERELVASISSGGGSTNYADSVKGRFTISRDNAKNTVYLQMNSLKPEDTAVYYCAVDTPRYRYYRTSYDYWGQGTQGTVSS,low polyreactivity
3,QVQLVESGGGLVQAGGSLRLSCAPSGSIFDSNAMGWYRQAPGKERELVAAISSSGARTYYADSVKGRFTISRDNAKNTVYLQMNSLKPEDTAVYYCAARYAGGYYYWGQGTQVTVSS,high polyreactivity
4,QVQLVESGGGLVQAGGSLRLSCAPSGSIFPSNVMGWYRQAPGKERELVAAISNTGSTNYADSVKGRFTISRDNAKNTVYLQMNSLKPEDTAVYYCNGDASYGFWSLLDYDYWGQATQVTVSS,low polyreactivity
5,QVQLVESGGGLVQAGGSLRLSCAPSGSIFQSYAMGWYRQAPGKEREMVAAITRSGGRTYYADSVKGRFTISRDNAKNTVYLQMNSLKPEDTAVYYCAAFGWGYGYWGQGTQVTVSS,high polyreactivity
6,QVQLVESGGGLVQAGGSLRLSCAPSGSIFRKYAMGRYRQAPGKERELVAAIRSSGGSTYYADSVKGRFTISRDKAKNSVYFQLNSLKPEDTAVYYCAARYYRPSRYDYWGQGTQVTVSS,high polyreactivity
7,QVQLVESGGGLVQAGGSLRLSCAPSGSIFSYYDIGWYIQAPGKERELVAAISWDGGDRTYADSVKGRFTISRDNAKNTVYLQMTSLKPEDTAVYYFAAGWDASYGYDYWGQGTQLTVSS,low polyreactivity
8,QVQLVESGGGLVQAGGSLRLSCAPSGSIFVYYGMGWYRQAPRKERELVAAISSGGSTHYADSVKGRFTISRDNAKITVYLQMNSLKPEDTAVYYCAADRFFWLRSYPRYYYWGQGTQVTVSS,low polyreactivity
9,QVQLVESGGGLVQAGGSLRLSCAPSGSIFYVNAMGWYRQAPGKERELVAAITYDTGRTYYADSVKGRFTISRDNAKNTVYLQKNSLKPEDTAVYYCAVRPGYYWGYWPRFGYWGQGTQVTVSS,low polyreactivity
10,QVQLVESGGGLVQAGGSLRLSCAPSGSTFGFYAMGWYIQAPGKERELVAAISRGGSTNYADSVKGRFTISRDNAKNTVYLQMNSLKPEDTAVYYCAKAYHATSDYWGQGTQVTVSS,low polyreactivity
11,QVQLVESGGGLVQAGGSLRLSCAPSGSTFTYNAMGWYRQAPGKERELVASISSGTTTYYADSVKGRFTISRDNAKNTVYLQMNSLKPEDTAVYYCAVDSWSRVQGWLAHNYDYWGQGTQVTVSS,low polyreactivity
12,QVQLVESGGGLVQAGGSLRLSCAPSGSTFYIYAMGWYRQAPGKERELVAAISTTDGTTYYADSVKGRFTISRDNAKNTVYLQMNSLKPEDTAVYYCAAEWFGSVQPAYDYWGQGTQVTVSS,high polyreactivity
13,QVQLVESGGGLVQAGGSLRLSCAPSGYTYSDYAMGWYRQAPAKERELVAGITGGGGTYYADSVKGRFTISRDNAKNTVYLQMNSLKPEDTAVYYCAAGRRHGFGYWGQGTQVTVSS,low polyreactivity
14,QVQLVESGGGLVQAGGSLRLSCASSALIFYWYPIGWYRQAPGKESELVAAISYGGTTTSYADSVKGRFTISRDNATNTVYLQMNSLKPEDTAVYYCAADWLYGHFQITGYPVGVDYWGQGTQVTVSS,low polyreactivity
15,QVQLVESGGGLVQAGGSLRLSCASSARIFFWYTMGWYSQAPGKERELVAAITSSGNTNYADSVKGRFTISRDNAKNTVYLQMNSLKPEDTAVYYCATGSYSYYSLFDYWGQGTQVTVSS,low polyreactivity
16,QVQLVESGGGLVQAGGSLRLSCASSGFIFHTYAMGWYRQAPGKERELVAAISGGTSSTYYADSVKGRFTISRDNAKNTVYLQMKSLKPEDTAVYYCAARSRRGGYPRYFYWGQGTQVTVSS,high polyreactivity
17,QVQLVESGGGLVQAGGSLRLSCASSGFTFAYYAMGWYRQAPGKERELVAAISSRGGSTYADSVKGRFTISRDNAKNTVYLQMNSLKPEYTAVYYCNAVVPRSRYFSWTYDYWGQGTQVTVSS,high polyreactivity
18,QVQLVESGGGLVQAGGSLRLSCASSGFTFFYYAMGWYRQAPGKERELVAAISASGGSTSYADSVKGRFTISRDNAKNTVYLQMNSLKPEDTAVYYCAARVYSVRSGYYYWGQGTQVTVSS,high polyreactivity
19,QVQLVESGGGLVQAGGSLRLSCASSGFTFRYYAMGWYRQAPGKERELVAAITGNGGSTYYADSVKGRFTISRDNAKNTVYFQMNSLKPEDTAVYYCNKPYFTASGDRFGYWGQVTQVTVSS,high polyreactivity
20,QVQLVESGGGLVQAGGSLRLSCASSGFTFSVYAMGWYRQAPGKERELVAAITWRGGSTYYADSVKGRFTISRDNAKNTVYLQMNSLKPEDTAVYYCAVLYPKYGKRYGYWGQGTQVTVSS,high polyreactivity
21,QVQLVESGGGLVQAGGSLRLSCASSGFTFTYNVMGWYRQAPGKERELVAAISWSGTSTSYADSVKGRFTISRDNAKNTVYLQMNSLNPEDTAVYYCAVQRKSSKRAFRYGYWGQGTQVTVSS,high polyreactivity
22,QVQLVESGGGLVQAGGSLRLSCASSGFTFYYSMGLYRQAPVKERELVASINYSGGSTYYADSVKGRFTISRDNGKNTLYLQMNSLKAEETGVYYCAVDVRPRGLMYYWGQGTQVTVSS,low polyreactivity
23,QVQLVESGGGLVQAGGSLRLSCASSGFTLYANAMGWYRQAPGKERELVADISESGSSTSYADSVKGRFTISRDNAKNTVYLQMKSLKPEDTAVYYCYDYWVQGTQVTVSS,low polyreactivity
24,QVQLVESGGGLVQAGGSLRLSCASSGGTFEVNAMGWYRQAPGKERELVAAIDTSDGSTYYADSVKGRFTISRDNAKNTVYFQMNSLKPEDTSVYYCAAERLFRFWYSAYERYDYWGQGTQVTVSS,low polyreactivity
25,QVQLVESGGGLVQAGGSLRLSCASSGGTFSPYAMVWYIQAPGKEREMVAVIRSDVTTNYADSVKGRFTISRDNAKNTLYLQMNRLKPEDTAVYYCAVQYLGYGGLFPLDYWGQGTQVTVSS,low polyreactivity
26,QVQLVESGGGLVQAGGSLRLSCASSGGTFVTNAMGWYRQAPAKERELVAAISYDGGITYYADSVKGRFTISRDNAKNTVYLKMNSLKPEDTAVYYGAAYRRYRNWFNYWGQGTQVTVSS,high polyreactivity
27,QVQLVESGGGLVQAGGSLRLSCASSGHIFTRNAMGWYIQAPGKERELVAAISRTGGSTYYADSVKGRFTISRDNAKNTVYLQMNSLKPEDTAVYYCNARGTYTSRRGYDYWGQGTQVTVSS,high polyreactivity
28,QVQLVESGGGLVQAGGSLRLSCASSGIIFSYNAMGWSRQAPGKERELVAAISSGGRTYYADSVKGRFTISRDNAKNTVYLQMKSLKPEDTAVYYCATTSPHRLYGYYYDYWGQGTQVTVSS,high polyreactivity
29,QVQLVESGGGLVQAGGSLRLSCASSGIIFTFNAKGWYRQAPGKERELVAAISGRGARTYYADSVKGRFTISRDNAKNTVYLKMKSLKPEDTAVYYCAAPSNSYRSLSNSYQYYYWGQGSQVTVSS,high polyreactivity
30,QVQLVESGGGLVQAGGSLRLSCASSGITFDYYDMGWYRQPPGKERELVAAISTGGGRTYYADSVKGRFTFSRDNAKNTVYLQMNSLKPEDTAVYYCAATYTRVPNRFYYWGQGTQVTVSS,high polyreactivity
